Measurements: the nanobody polyreactivity screen of Harvey et al. (2022)

Experiment: yeast display, Sf9 membrane polyspecificity reagent, FACS + sequencing; frameworks hold sequencing errors
How it was run: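 Using colony PCR, genes from sorted yeast display clones were amplified, then sequenced on MiSeq at 2 × 250 and filtered by CDR length. The clones had been stained with 10% biotinylated, detergent-solubilized Sf9 membrane reagent for 1 hour at 4 °C and sorted by FACS into low and high (top ~1%) gates on anti-HA and streptavidin fluorescence. Polyreactivity labels come from the gate of origin.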

Sequence	polyreactivity (PSR sort gate)
QVQLVESGGGLVQAGGSLRLSCAASGSTFKAYAMGLYRPAPGKERELVAAITRRGTSTYYADSVKGRFTISRDNAKNTVYLQMNSLKPEDTAVYYCNAKYVSDRSSAVSFDYWGQGTQVTVSS	low polyreactivity
QVQLVESGGGLVQAGGSLRLSCAASGSTFKAYAMGWYRQAPGKERELVAAITRRGTSTYYADSVKGRFTISRDNAKNTVYLQMNSLKPEDTAVYYCNAKYVSDRSSAVSFDYWGQGTQVTVSS	low polyreactivity
QVQLVESGGGLVQAGGSLRLSCAASGSTFKFNDMGWYRQAPGKERELVAAISRGGRTNYADSVKGRFTISRDNAKNTVYLQMNSLKPEDTAVYYCAADYSTLYKYDYWGQGTQVTVSS	low polyreactivity
QVQLVESGGGLVQAGGSLRLSCAASGSTFKFNTMGWYRQAPGKERELVAAISWRGGSTYYADSVKGRFTISRDNAKNTVYLQMYSLKPEDTAFYYCAAPWYIRYDSWGQGTQVTVSS	high polyreactivity
QVQLVESGGGLVQAGGSLRLSCAASGSTFKGYAMGWYRQAPGKERELVAAITWIGGSTTYADSVKGRFTISCDNAKNTVYLQMNSLKPEVTAVYYCAADNFWYFLSATEDYWGQGTQVTVSS	low polyreactivity
QVQLVESGGGLVQAGGSLRLSCAASGSTFKHNTMGWYRQAPGKERELVAAITSSGGTYYADSVKGRFTISRDNAKNTVYLQMNSLKPEDTAVYYCAARVTYRGRAYDYWGQGTQVTVSS	high polyreactivity
QVQLVESGGGLVQAGGSLRLSCAASGSTFKIYAMGWYRQAPGKERELVARITGRGGSTYYADSVKGRFTISRDNAKNTVYLQMNSLKPEDTAVYYCAARTYYVPYYYWGQGTQVTVSS	high polyreactivity
QVQLVESGGGLVQAGGSLRLSCAASGSTFKLNAMGWYRQAPGKERELLASISTGASTNYADSVKGRFTISLDNAKNTVYVQMNSLNPEDTAVYYCAAQYPFAGYYITQYEYDYWGQGTQVTVSS	low polyreactivity
QVQLVESGGGLVQAGGSLRLSCAASGSTFKPNAMGSYRQAPGKEREFVASITWSAGSTYYADSVKGRFTISRDNAKNTVYLQMNSLKPEDTAVYYCAARLRWAGISRYGYWGQGTQVTVSS	high polyreactivity
QVQLVESGGGLVQAGGSLRLSCAASGSTFKQYAMGWYRQAPGKERELVAAISTIGGSTYYADSVKGRFTISRDNAKITVYLQMNSLKPEDTAVYYCAAEYWYIWPYNYWGLGTQVTVSS	high polyreactivity
QVQLVESGGGLVQAGGSLRLSCAASGSTFKRYAKGWYRQAPGKERELVAAITLSGGNTYYADSVKGRFTISRDNAKNTVYLQMNSLKPEDTAVYYCAARRYRGYDYWGQGTQVTVSS	high polyreactivity
QVQLVESGGGLVQAGGSLRLSCAASGSTFKRYAMGWYRQAPGKERELVAAINRSGTSTYADSVKGRFTISRDNAKNTVYLQMNSLKPEDSAVYYCARYYAYLRVKYDYWGQGTQVTVSS	high polyreactivity
QVQLVESGGGLVQAGGSLRLSCAASGSTFKSNAMGWYRQAPGKERELVAAINRSGAGTYYADSVKGRFTISRDNAKHTVYLQLNSLKPEDTAVYYCAAQSYSRRYDYWGQGTQVTVSS	high polyreactivity
QVQLVESGGGLVQAGGSLRLSCAASGSTFKSYTMGWYRPAPGKERELVAAISGSGGRTYYADSVKGRFTISRDNAKNTVYLQMNSLKPEDTAVYYCAATGPYGFYWGQGTQVTVSS	high polyreactivity
QVQLVESGGGLVQAGGSLRLSCAASGSTFKSYVMGWYRAAPGKERELVAAISTGDSTYYADSVKGRFTISRDNAKNTVYLQMNSLKPEDTAVYYCAADPGYTVEPWEDDYWGQGTQVTVSS	low polyreactivity
QVQLVESGGGLVQAGGSLRLSCAASGSTFKSYVMGWYRQAPGKERELVAAISSGDSTYYADSVKGRFTISRDNAKNTVYLQMNSLKPEDTAVYYCAADPGYTVEPWEDDDWGQGTQVTVSS	low polyreactivity
QVQLVESGGGLVQAGGSLRLSCAASGSTFKSYVMGWYRQAPGKERELVAAISSGDSTYYADSVKGRFTISRDNAKNTVYLQMNSLKPEDTAVYYCNADVSLDDYDYWGQGTQVTVSS	low polyreactivity
QVQLVESGGGLVQAGGSLRLSCAASGSTFKVYAMGWYRQAPGKERELVAVISGGGRTNYADSVKGRFTISRDNAKNTVYLQMNSLKPEDTAVYYCAAQATYHRYYTYYYWGQGTKVTVSS	high polyreactivity
QVQLVESGGGLVQAGGSLRLSCAASGSTFKWNAMGWYRQAPGKERELVAAISKGSVNTYYADSVKGRFTISRDNAKNTVYLQMNSLKPEDTAVYYCAADRRYPALDYWGQGTQVTVSS	high polyreactivity
QVQLVESGGGLVQAGGSLRLSCAASGSTFKWYAMGWYRQAPGKERELVATISSGGSTNYADSVKGRFTISRDNAKNTVYLQMNSLKPEDTAVYYCAAANFKWGQGTQVTVTS	low polyreactivity
QVQLVESGGGLVQAGGSLRLSCAASGSTFKYNAMGWYRQAPGKERELVASISRSGGSTYYADSVKGRFTISRDNAKNTVYLQMNSLKPEDTAVYYCNVRRFVHYEYWGQGTQVTVSS	high polyreactivity

Sequence	polyreactivity (PSR sort gate)
QVQLVESGGGLVQAGGSLRLSCAASGSTFKYNAMGWYRQAPGKERELVATISGTGGSTYYADSVKGRFTISRDNAKNTVYLQMNSLKPEDTAVYYCAARWGRSQLRYYYWGQGTQVTVSS	high polyreactivity
QVQLVESGGGLVQAGGSLRLSCAASGSTFKYYVMGWYRQAPGKERELVAAITRSGSTNYADSVKGRFTISRDNAKNTVYLQMNSLKPEDTAVYYCAAERALSRYGYWGQGTQVTVSS	low polyreactivity
QVQLVESGGGLVQAGGSLRLSCAASGSTFLAYAMGWYRQAPGKERELVAAISSRGSRTYYADSVKGRFTISRDNAKNTVYLQMNSLKPEDTAVYYCATPYSRSYSYRYDYWGQGTQVTVSS	high polyreactivity
QVQLVESGGGLVQAGGSLRLSCAASGSTFLGNAMGWYRQAPGKERELVATITGSSGSTYYADSVKGRFTISRDNAKNTVYLQMNSLKPEDTAVYYCNTVYNYWDGYDYWGQGTQVTVSS	low polyreactivity
QVQLVESGGGLVQAGGSLRLSCAASGSTFLGNAMGWYSQAPGKERELVASISWSGGSTSYADSVKGRFTISRDIAKNTVYLLMNSLKPEDTAVYYCAVDWRYTGRTYYGMESWGQGTQVTVSS	low polyreactivity
QVQLVESGGGLVQAGGSLRLSCAASGSTFLHYAMGWYRQAPGKERELVAAISFSGVRTYYADSVKGRFTISRDNAKNTVYLQLNSLKPEDNAVYYCDADGHHADYDYLGQGTQVTVSS	low polyreactivity
QVQLVESGGGLVQAGGSLRLSCAASGSTFLINAMGWYRQAPGKEREFVAAITSSGGTTYYADSVKGRFTISRDNAKNTVYLQMNSLKPEDTAVYYCAAVSRSRREKKFDYWGQGTQVTVSS	low polyreactivity
QVQLVESGGGLVQAGGSLRLSCAASGSTFLINAMGWYRQAPGKERELVAAITGRGGSTYYADSVKGRFTISRDNAKNTVYLQMNSLKPEDTAVYYCNAERLGTGYRYDYWGQGTQVTVSS	high polyreactivity
QVQLVESGGGLVQAGGSLRLSCAASGSTFLKNAMGWYRQAPGKERELVAAISYSTTRTYYAVSVKGRFTISRDNAKNTVYLQINSLKPEDTAVYYCAARYDRSSKRNYWGQGTQVTVSS	low polyreactivity
QVQLVESGGGLVQAGGSLRLSCAASGSTFLKYAMGWYRQAPGKERELVAAISRSGTSTYYADSVKGRFTISRDNAKNTVYLQMNSLKPEDTAVYYCAARWIRSNTQYDYWGQGTQVTVSS	high polyreactivity
QVQLVESGGGLVQAGGSLRLSCAASGSTFLNYAMGWYRQAPGKERELVAAISGRGGRTYYADSVKGRFTISRDNAKNTVYLQMNSLKPEDTAFYYCAARIWVSYTSYDYWGQGTQVTVSS	high polyreactivity
QVQLVESGGGLVQAGGSLRLSCAASGSTFLNYAMGWYRQAPGKERELVAAISGRGGRTYYADSVKGRFTISRDNAKNTVYLQMNSLTPEDTAVYYCAARKWVSYTSYDYWGQGTQVTVSS	high polyreactivity
QVQLVESGGGLVQAGGSLRLSCAASGSTFLQNAMGWYRQAPGKEREFVAAISYTGANTYYADSVKGRFTISRDNAKNTVYLQMNSLKPEDTAVYYCAAYARGVRRYRRYDYWGQGTQVTVSS	high polyreactivity
QVQLVESGGGLVQAGGSLRLSCAASGSTFLQNAMGWYRQAPGKERELVAAISRSGGSTYYADSVKGRFTISRDNAKNTVYLQMNSLKPEDTAVYYCAAGGRRYDDDYWGQGTQVTVSS	high polyreactivity
QVQLVESGGGLVQAGGSLRLSCAASGSTFLRYAMGWYRPAPGKERELVAAISWSGGTTYYADSVKGRFTISRDNAKNTVYLQMNSLKPEDTAVYYCNTASWRAQYYYWGQGTQVTVSS	high polyreactivity
QVQLVESGGGLVQAGGSLRLSCAASGSTFLRYAMGWYRQAPGKERELVAGIRYSGGTYYADSVKGRFTISRDNAKNTVYLQMNSLKPEDTAVYYCAAYWKLGGFRYGYWGQGTQVTVSS	high polyreactivity
QVQLVESGGGLVQAGGSLRLSCAASGSTFLSNAMGWYRQAPGKERELVASIDWSGVSTYYADSVKGRFTISRDNAKNTVYLQMNSLNPEDTAVYYCAAEQVQSWDAYYQVEEYDYWGQGTQVTVSS	low polyreactivity
QVQLVESGGGLVQAGGSLRLSCAASGSTFLSYAMGWYRQAPGKERELVAAITSGGRTYYADSVKGRFTISRDNAKNTVYLQMNSLKPEDTAVYYCAAVTGRFGYWGQGTQVTVSS	high polyreactivity
QVQLVESGGGLVQAGGSLRLSCAASGSTFLTNAMGWYRQAPGKERELVVAIRTSGGSTYYADSVKGRFTISRDNAKNTVYLQMNSLKPEDTAFYYCAASYRRRRFSEYYYWGQGTQVTVSS	high polyreactivity
QVQLVESGGGLVQAGGSLRLSCAASGSTFLTNVMGWYRPAPGQERELVAAITIGGSTNYADSVKGRFTISRDNAKNTVYLQMNILKPEDTAVYYCATDIRRKPRYVDYEYWGQGTQVTVSS	low polyreactivity
